Measurements published in paper PMC5716252, “Heterologous expression, purification and function of the extracellular domain of human RANK” (BMC Biotechnology, 2017).

Biological target: T1, RANK-N, soluble form of the extracellular domain of human RANK (human, UniProt Q9Y6Q6 29-213, N-glycosylated (28 kDa band shifts to about 21 kDa with PNGase F); predicted sites Asn 105 and Asn 174, not verified)
T1 construct: Codon-optimised gene cloned into pPIC9K cut with XhoI and NotI; no tag is named; also called recombinant RANK-N
T1 sequence (looked up): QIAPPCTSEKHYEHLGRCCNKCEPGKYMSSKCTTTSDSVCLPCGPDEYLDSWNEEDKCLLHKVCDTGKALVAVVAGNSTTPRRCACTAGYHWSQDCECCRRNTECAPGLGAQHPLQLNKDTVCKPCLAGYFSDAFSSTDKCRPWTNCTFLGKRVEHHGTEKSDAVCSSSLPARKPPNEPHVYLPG
Assay: SPR; Biacore T100; RANKL amine-coupled to a CM5 chip; RANK-N (32.5 to 1000 nM) injected at 30 μl/min, 25 °C, contact 210 s, dissociation 400 s; running buffer 3 mM EDTA, 150 mM NaCl, 10 mM HEPES, 0.05% Surfactant P20; steady-state responses fit to the Hill equation
Conditions: both partners purified

Kd: 2620 nM
B1: RANKL (R&D Systems, 462-TEC-010/CF) (ligand, UniProt O35235 139-316, looked up)
chain: FSGAPAMMEGSWLDVAQRGKPEAQPFAHLTINAASIPSGSHKVTLSSWYHDRGWAKISNMTLSNGKLRVNQDGFYYLYANICFRHHETSGSVPTDYLQLMVYVVKTSIKIPSSHNLMKGGSTKNWSGNSEFHFYSINVGGFFKLRAGEEISIQVSNPSLLDPDQDATYFGAFKVQDID
notes: RANKL, recombinant protein bought from R&D Systems, catalogue 462-TEC-010/CF; As far as I recall, catalogue 462-TEC is R&D's recombinant mouse TRANCE/RANKL (soluble extracellular part, carrier-free); source: bought: R&D Systems (462-TEC-010/CF)
